# *1 amine or outer side, *2 acyl side, *3 side chain or, on linkers, in order; H or OH if unused. Where no end group is shown, it is not given here. [ ]: non-standard residue; d: D form. The star is where a group is joined. Glu(NH-hexyl) = N5-hexyl-L-glutamine, CCCCCCNC(=O)CC[C@H](N[*:1])C(=O)[*:2]; Biotin = O=C1N[C@H]2[C@H](CS[C@H]2CCCCC(=O)*)N1; Myristoyl = CCCCCCCCCCCCCC(=O)*; Octanoyl = CCCCCCCC(=O)*; Aib = CC(C)(N)C(=O)O
# Biological target: T1, human GH secretagogue receptor (human, UniProt Q92847 1-366)
# T1 construct: whole, on cells; the Ca2+ assay used the whole cells; also called hGHS-R; ghrelin receptor
# T1 sequence (Q92847 whole entry): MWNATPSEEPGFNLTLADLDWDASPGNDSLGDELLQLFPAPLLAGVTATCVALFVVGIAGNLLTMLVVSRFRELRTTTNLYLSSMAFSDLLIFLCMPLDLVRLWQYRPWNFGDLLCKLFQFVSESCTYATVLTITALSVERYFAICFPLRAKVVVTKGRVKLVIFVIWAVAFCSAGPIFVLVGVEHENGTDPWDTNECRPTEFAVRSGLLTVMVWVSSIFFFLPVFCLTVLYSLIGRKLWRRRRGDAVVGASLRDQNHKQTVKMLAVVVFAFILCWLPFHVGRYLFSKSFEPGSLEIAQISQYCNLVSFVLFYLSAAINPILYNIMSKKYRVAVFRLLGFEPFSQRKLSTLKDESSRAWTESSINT
# Experiment: radioligand competition, (125I)ghrelin on membranes of CHO-K1 cells expressing hGHS-R
# Procedure: Membranes for radioligand binding studies can be and were prepared by homogenization of the foregoing CHO-K1 cells expressing the human recombinant GHS receptor in about 20 ml of ice-cold 50 mM Tris-HCl with a Brinkman Polytron® (Brinkman®, Westbury, N.Y., U.S.A.) at setting 6 for about 15 seconds. The homogenates were washed twice by centrifugation (39,000 g/10 minutes) and the final pellets were resuspended in about 50 mM Tris-HCl containing 2.5 mM MgCl₂ and 0.1% bovine serum albumin (BSA). For the selected assay, aliquots of approximately 0.4 ml were incubated with 0.05 nM (¹²⁵I)ghrelin (˜2000 Ci/mmol; Perkin Elmer Life Sciences@, Boston, Mass., U.S.A.) with and without 0.05 ml of unlabeled competing test peptide. After approximately 60 minutes at 4° C., the bound (¹²⁵I)ghrelin was separated from the free ghrelin by rapid filtration through GF/C filters (available from Brandel®, Gaithersburg, Md., U.S.A.) which were pre-soaked in 0.5% polyethyleneimine/0.1% BSA. The filters were then washed 3 times with 5-ml aliquots of ice-cold 50 mM Tris-HCl and 0.1% BSA. The bound radioactivity trapped on the filters was counted by gamma spectrometry (using a spectrometer from Wallace LKB®, Gaithersburg, Md., U.S.A.). Specific binding was determined by subtracting (¹²⁵I)ghrelin bound in the presence of 1000 nM ghrelin (available from Bachem®, Torrence, Calif., U.S.A.) from the total (¹²⁵I)ghrelin bound.
# A selection of the preferred embodiments was tested using the receptor binding assay discussed above and the results are reported in Table 2 presented below.
row,Binder,Ki
1,"G[Aib][Glu(NH-hexyl)]FLSPEH[Aib]RVQQRK[Glu(NH-hexyl)]SKKPPAKLQPR-NH2 (N-terminus assumed; SMILES CCCCCCNC(=O)CC[C@H](NC(=O)[C@H](CCCCN)NC(=O)[C@H](CCCNC(=N)N)NC(=O)[C@H](CCC(N)=O)NC(=O)[C@H](CCC(N)=O)NC(=O)[C@@H](NC(=O)[C@H](CCCNC(=N)N)NC(=O)C(C)(C)NC(=O)[C@H](Cc1c[nH]cn1)NC(=O)[C@H](CCC(=O)O)NC(=O)[C@@H]1CCCN1C(=O)[C@H](CO)NC(=O)[C@H](CC(C)C)NC(=O)[C@H](Cc1ccccc1)NC(=O)[C@H](CCC(=O)NCCCCCC)NC(=O)C(C)(C)NC(=O)CN)C(C)C)C(=O)N[C@@H](CO)C(=O)N[C@@H](CCCCN)C(=O)N[C@@H](CCCCN)C(=O)N1CCC[C@H]1C(=O)N1CCC[C@H]1C(=O)N[C@@H](C)C(=O)N[C@@H](CCCCN)C(=O)N[C@@H](CC(C)C)C(=O)N[C@@H](CCC(N)=O)C(=O)N1CCC[C@H]1C(=O)N[C@@H](CCCNC(=N)N)C(N)=O, Synthetic ghrelin analog; calculated MW 3407.10, found 3407.20; also called #58) [(Aib^2,10,Glu(NH-hexyl)^3,17)hGhrelin(1-28)-NH2]",0.4 nM
2,"[Aib][Aib][Glu(NH-hexyl)]FLSPEH[Aib]RVQQRK[Glu(NH-hexyl)]SKKPPAKLQPR-NH2 (N-terminus assumed; SMILES CCCCCCNC(=O)CC[C@H](NC(=O)[C@H](CCCCN)NC(=O)[C@H](CCCNC(=N)N)NC(=O)[C@H](CCC(N)=O)NC(=O)[C@H](CCC(N)=O)NC(=O)[C@@H](NC(=O)[C@H](CCCNC(=N)N)NC(=O)C(C)(C)NC(=O)[C@H](Cc1c[nH]cn1)NC(=O)[C@H](CCC(=O)O)NC(=O)[C@@H]1CCCN1C(=O)[C@H](CO)NC(=O)[C@H](CC(C)C)NC(=O)[C@H](Cc1ccccc1)NC(=O)[C@H](CCC(=O)NCCCCCC)NC(=O)C(C)(C)NC(=O)C(C)(C)N)C(C)C)C(=O)N[C@@H](CO)C(=O)N[C@@H](CCCCN)C(=O)N[C@@H](CCCCN)C(=O)N1CCC[C@H]1C(=O)N1CCC[C@H]1C(=O)N[C@@H](C)C(=O)N[C@@H](CCCCN)C(=O)N[C@@H](CC(C)C)C(=O)N[C@@H](CCC(N)=O)C(=O)N1CCC[C@H]1C(=O)N[C@@H](CCCNC(=N)N)C(N)=O, Synthetic ghrelin analog; calculated MW 3435.16, found 3435.00; also called #70) [(Aib^1,2,10,Glu(NH-hexyl)^3,17)hGhrelin(1-28)-NH2]",0.63 nM
3,"GXSFLSPXHQRVQQRKESKKPPAKLQPR (Aib at 2 and 8; Ser at 3 (plain, not acylated); Glu(NH-hexyl) at 17; C-terminal amide, Synthetic ghrelin analog; calculated MW 3280.91 (fits an unacylated Ser 3), found 3281.60; also called #219) [(Aib^2,8,Ser^3,Glu(NH-hexyl)^17)hGhrelin(1-28)-NH2]",214 nM
4,"Ac-[Aib][Aib][Glu(NH-hexyl)]FLSPEH[Aib]RVQQRK[Glu(NH-hexyl)]SKKPPAKLQPR-NH2 (SMILES CCCCCCNC(=O)CC[C@H](NC(=O)[C@H](CCCCN)NC(=O)[C@H](CCCNC(=N)N)NC(=O)[C@H](CCC(N)=O)NC(=O)[C@H](CCC(N)=O)NC(=O)[C@@H](NC(=O)[C@H](CCCNC(=N)N)NC(=O)C(C)(C)NC(=O)[C@H](Cc1c[nH]cn1)NC(=O)[C@H](CCC(=O)O)NC(=O)[C@@H]1CCCN1C(=O)[C@H](CO)NC(=O)[C@H](CC(C)C)NC(=O)[C@H](Cc1ccccc1)NC(=O)[C@H](CCC(=O)NCCCCCC)NC(=O)C(C)(C)NC(=O)C(C)(C)NC(C)=O)C(C)C)C(=O)N[C@@H](CO)C(=O)N[C@@H](CCCCN)C(=O)N[C@@H](CCCCN)C(=O)N1CCC[C@H]1C(=O)N1CCC[C@H]1C(=O)N[C@@H](C)C(=O)N[C@@H](CCCCN)C(=O)N[C@@H](CC(C)C)C(=O)N[C@@H](CCC(N)=O)C(=O)N1CCC[C@H]1C(=O)N[C@@H](CCCNC(=N)N)C(N)=O, Synthetic ghrelin analog; calculated MW 3477.19, found 3477.40; also called #158) [(Ac-Aib^1,Aib^2,10,Glu(NH-hexyl)^3,17)hGhrelin(1-28)-NH2]",24.4 nM
5,"Ac-G[Aib][Glu(NH-hexyl)]FLSPEH[Aib]RVQQRK[Glu(NH-hexyl)]SKKPPAKLQPR-NH2 (SMILES CCCCCCNC(=O)CC[C@H](NC(=O)[C@H](CCCCN)NC(=O)[C@H](CCCNC(=N)N)NC(=O)[C@H](CCC(N)=O)NC(=O)[C@H](CCC(N)=O)NC(=O)[C@@H](NC(=O)[C@H](CCCNC(=N)N)NC(=O)C(C)(C)NC(=O)[C@H](Cc1c[nH]cn1)NC(=O)[C@H](CCC(=O)O)NC(=O)[C@@H]1CCCN1C(=O)[C@H](CO)NC(=O)[C@H](CC(C)C)NC(=O)[C@H](Cc1ccccc1)NC(=O)[C@H](CCC(=O)NCCCCCC)NC(=O)C(C)(C)NC(=O)CNC(C)=O)C(C)C)C(=O)N[C@@H](CO)C(=O)N[C@@H](CCCCN)C(=O)N[C@@H](CCCCN)C(=O)N1CCC[C@H]1C(=O)N1CCC[C@H]1C(=O)N[C@@H](C)C(=O)N[C@@H](CCCCN)C(=O)N[C@@H](CC(C)C)C(=O)N[C@@H](CCC(N)=O)C(=O)N1CCC[C@H]1C(=O)N[C@@H](CCCNC(=N)N)C(N)=O, Synthetic ghrelin analog; calculated MW 3449.14, found 3449.20; also called #146) [(Ac-Gly^1,Aib^2,10,Glu(NH-hexyl)^3,17)hGhrelin(1-28)-NH2]",0.99 nM
6,"Ac-G[Aib][Glu(NH-hexyl)]FLSPEH[Aib]RVQQRKK(Biotin)SKKPPAKLQPR-NH2 (SMILES CCCCCCNC(=O)CC[C@H](NC(=O)C(C)(C)NC(=O)CNC(C)=O)C(=O)N[C@@H](Cc1ccccc1)C(=O)N[C@@H](CC(C)C)C(=O)N[C@@H](CO)C(=O)N1CCC[C@H]1C(=O)N[C@@H](CCC(=O)O)C(=O)N[C@@H](Cc1c[nH]cn1)C(=O)NC(C)(C)C(=O)N[C@@H](CCCNC(=N)N)C(=O)N[C@H](C(=O)N[C@@H](CCC(N)=O)C(=O)N[C@@H](CCC(N)=O)C(=O)N[C@@H](CCCNC(=N)N)C(=O)N[C@@H](CCCCN)C(=O)N[C@@H](CCCCNC(=O)CCCC[C@@H]1SC[C@@H]2NC(=O)N[C@@H]21)C(=O)N[C@@H](CO)C(=O)N[C@@H](CCCCN)C(=O)N[C@@H](CCCCN)C(=O)N1CCC[C@H]1C(=O)N1CCC[C@H]1C(=O)N[C@@H](C)C(=O)N[C@@H](CCCCN)C(=O)N[C@@H](CC(C)C)C(=O)N[C@@H](CCC(N)=O)C(=O)N1CCC[C@H]1C(=O)N[C@@H](CCCNC(=N)N)C(N)=O)C(C)C, Synthetic ghrelin analog; calculated MW 3591.32, found 3591.50; also called #166) [(Ac-Gly^1,Aib^2,10,Glu(NH-hexyl)^3,Lys(biotinyl)^17)hGhrelin(1-28)-NH2]",1.28 nM
7,"GXEFLSPXHQRVQQRKESKKPPAKLQPR (N-terminal acetyl (Ac-Gly at 1); Aib at 2 and 8; Glu(NH-hexyl) at 3 and 17; C-terminal amide, Synthetic ghrelin analog; calculated MW 3448.16, found 3447.98) [(Ac-Gly^1,Aib^2,8,Glu(NH-hexyl)^3,17)hGhrelin(1-28)-NH2]",2.94 nM
8,"GSS(Octanoyl)FLSPEHQRVQQRKK(Biotin)SKKPPAKLQPR-NH2 (N-terminus assumed; SMILES CCCCCCCC(=O)OC[C@H](NC(=O)[C@H](CO)NC(=O)CN)C(=O)N[C@@H](Cc1ccccc1)C(=O)N[C@@H](CC(C)C)C(=O)N[C@@H](CO)C(=O)N1CCC[C@H]1C(=O)N[C@@H](CCC(=O)O)C(=O)N[C@@H](Cc1c[nH]cn1)C(=O)N[C@@H](CCC(N)=O)C(=O)N[C@@H](CCCNC(=N)N)C(=O)N[C@H](C(=O)N[C@@H](CCC(N)=O)C(=O)N[C@@H](CCC(N)=O)C(=O)N[C@@H](CCCNC(=N)N)C(=O)N[C@@H](CCCCN)C(=O)N[C@@H](CCCCNC(=O)CCCC[C@@H]1SC[C@@H]2NC(=O)N[C@@H]21)C(=O)N[C@@H](CO)C(=O)N[C@@H](CCCCN)C(=O)N[C@@H](CCCCN)C(=O)N1CCC[C@H]1C(=O)N1CCC[C@H]1C(=O)N[C@@H](C)C(=O)N[C@@H](CCCCN)C(=O)N[C@@H](CC(C)C)C(=O)N[C@@H](CCC(N)=O)C(=O)N1CCC[C@H]1C(=O)N[C@@H](CCCNC(=N)N)C(N)=O)C(C)C, Synthetic ghrelin analog; calculated MW 3595.27, found 3594.90; also called #78) [(Lys(biotinyl)^17)hGhrelin(1-28)-NH2]",0.07 nM
9,"GXEFLSPEHQRVQQRKESKKPPAKLQPR (N-terminal acetyl (Ac-Gly at 1); Aib at 2; Glu(NH-hexyl) at 3 and 17; C-terminal amide, Synthetic ghrelin analog; calculated MW 3492.17, found 3492.00) [(Ac-Gly^1,Aib^2,Glu(NH-hexyl)^3,17)hGhrelin(1-28)-NH2]",1.68 nM
10,"G[Aib]S(Octanoyl)FLSPEHQRVQQRKK(Myristoyl)SKKPPAKLQPR-NH2 (N-terminus assumed; SMILES CCCCCCCCCCCCCC(=O)NCCCC[C@H](NC(=O)[C@H](CCCCN)NC(=O)[C@H](CCCNC(=N)N)NC(=O)[C@H](CCC(N)=O)NC(=O)[C@H](CCC(N)=O)NC(=O)[C@@H](NC(=O)[C@H](CCCNC(=N)N)NC(=O)[C@H](CCC(N)=O)NC(=O)[C@H](Cc1c[nH]cn1)NC(=O)[C@H](CCC(=O)O)NC(=O)[C@@H]1CCCN1C(=O)[C@H](CO)NC(=O)[C@H](CC(C)C)NC(=O)[C@H](Cc1ccccc1)NC(=O)[C@H](COC(=O)CCCCCCC)NC(=O)C(C)(C)NC(=O)CN)C(C)C)C(=O)N[C@@H](CO)C(=O)N[C@@H](CCCCN)C(=O)N[C@@H](CCCCN)C(=O)N1CCC[C@H]1C(=O)N1CCC[C@H]1C(=O)N[C@@H](C)C(=O)N[C@@H](CCCCN)C(=O)N[C@@H](CC(C)C)C(=O)N[C@@H](CCC(N)=O)C(=O)N1CCC[C@H]1C(=O)N[C@@H](CCCNC(=N)N)C(N)=O, Synthetic ghrelin analog; calculated MW 3577.35, found 3577.2; also called #217) [(Aib^2,Lys(myristyl)^17)hGhrelin(1-28)-NH2]",0.16 nM
